Numbering of substitutions follows the chain as printed.
B1: CA17675 (VHH)
VHH: QVQLVESGGKLVPAGDSLRLSCAASGRTFSDYIIGWFRQVSGKERKFVAAIRRSDGETVYTDSVKGRFTISRDNAKNTVYLQMNSLKPEDTAVYYCYLNNRNSRGSMDAYWGQGTQVTVSS
notes: C-terminal 6xHis-EPEA tag is part of the entry
B2: CA17517 (VHH)
VHH: QVQLVESGGGLVQPGGSLRLSCAASGRTFSNYIMGWFRQPPGKEREFVATISWSGSDTVYASSVKGRFTISRDNAKSTVYLQMNSLKPEDTAIYYCAAKDAVGYWSSDVYSEAKEYDYWGQGTQVTVSS
notes: as for B1
B3: CA17674 (VHH)
VHH: QVQLVESGGGLVQPGDFLRLSCAASDRTFSNYIMGWFRQAPGKEREFVATISWSGSDTVYASSVKGRFTISRDNAKSTVYLKMNSLKPEDTAIYYCAAKYAVGYWGNDVASEAKDYNYWGQGTQVTVSS
notes: as for B1
B4: CA17676 (VHH)
VHH: QVQLVESGGGLVQAGGSLRLSCAGSGGTFSAYTMGWFRQGLGEERELVACISRSGASTFYTDPVKGRFTISRDNDKNTVYLQMNNLKPEDTAVYYCAADWTVIDEITEQRSKHQTSYDYWGQGTQVTVSS
notes: as for B1
B5: CA17518 (VHH)
VHH: QVQLVESGGGLVQAGGSLRLSCVTSGFTFDDYAIGWFRQAPGKEREGVSSISSSDGTTYYADSVKGRFTISSDNAKNTVYLQMNNLKPEDTAVYYCAADWAAWPSIRVGVGVPAYEYDYWGQGTQVTVSS
notes: as for B1
B6: CA17519 (VHH)
VHH: QVQLVESGGGLVQPGGSLRLSCAASGRIFSIYVMGWYRQAPGKQRELVAQITNSGRTKFADSVKGRFTISRDNAKNMVYLQMNSLKAEDTAVYYCYADLDWYGGTANNDFWGQGTQVTVSS
notes: as for B1
B7: CA17520 (VHH)
VHH: QVQLVESGGGLVQTGGSLRLSCAASVRTFSNYIMGWFRQAPGKEREFVATISWSGINTYYADNVKGRFTISRDNARNTVYLQMNSLKPEDTAIYYCAAKSAVGYYHDSYASRAEEYDYWGQGTQVTVSS
notes: as for B1
B8: CA17673 (VHH)
VHH: QVQLVESGGGLVQAGGSLRLSCAASARAFMNYIMGWFRQAPGKEREFVATISWSGVTTDYADNVKGRFTISRDNAKNTVSLQMNSLKPEDTAIYYCAAKSAVGYYSDIYNSRAKEYDYWGQGTQVTVSS
notes: as for B1
B9: CA8780 (VHH)
VHH: QVQLQESGGGLVQPGGSLRLSCAPSGPFSPNSMGWYRQAPGKQRELVAVMTIDGRTNYQDSVKGRFTISRDYVKNTAYLQMNNLKPDDTAVYICNAETRGFMHWGQGTQVTVSS
notes: Control Nanobody; C-terminal 6xHis-EPEA tag is part of the entry; also called irrelevant Nb
B10: CA17562 (VHH)
VHH: QVQLVESGGGLVQPGGSLRLSCAASGFDFSRNRLNWHRQAPGKQRELVATIGSNGPRYADSVKDRFTISRDNEKNTVYLEMNSVKPEDTAVYYCAARGYWGQGTQVTVSS
notes: as for B1
B11: CA17563 (VHH)
VHH: QVQLVESGGGTVQAGDSLRLSCSASGRALTPYTMAWFRQPPGKERELVAAIGRTGSGTRYAEAVKDRFTISRDNDKQELYLQMNSLKPEDTAVYYCAANRRLTTSLEYDYWGQGTQVTVSS
notes: as for B1
B12: CA17791 (VHH)
VHH: QVQLVESGGGLVQPGGSLRLSCAASGITFSSYAMGWYRQAPGKERELVARITSGGSTDYAVSVKGRFTISRDNANNLVYLQMNSLNSEDTAVYYCHSQYSYGPLEYWGQGTQVTVSS
notes: as for B1
B13: CA17796 (VHH)
VHH: B12 VHH with T28S, S30H, E44Q, A49S, R50T, S53T, N75K, L77T, S84N, S100A
notes: as for B1
B14: CA17792 (VHH)
VHH: QVQLVESGGGLVQPGGSLRLSCAASGISFGSYTMAWYRQAPGKQRDMVADITTGGRTNYADSVKGRFTISRDNAKNTVYLQMNSLKSEDTAVYYCKADFAYGRDLTYWGQGTQVTVSS
notes: as for B1
B15: CA17793 (VHH)
VHH: QVQLVESGGGLVRPGGSLRLSCAASGITFSSYTMGWYRQAPGKQRELVATITTGGSTNYAVSAKGRFTISRDNANNRVTLQMNSLNSEDTAAYYCHSRFAYGPLEYWGQGTQVTVSS
notes: as for B1
B16: CA17794 (VHH)
VHH: QVQLVESGGGLVQPGGSLRLSCTASGVTFSRYAMSWYRQAPGKERELVATITGAGSSTNYEDSVKGRFTISRDNAKNTVYLQMNSLKPEDTAVYYCYADHYGLGYLDYWGQGTQVTVSS
notes: as for B1
B17: CA17795 (VHH)
VHH: QVQLVESGGGLVQPGGSLRLSCAASGSFFNINAMAWYRQAPGKQRELVAVIASSGRTNYADSVSGRFTISRDNAKNTVYLQMNSLKPEDTAVYYCNSKIRQASWNLVLSDHWGQGTQVTVSS
notes: as for B1

Target: T1, GFP protein (Aequorea victoria (Water jellyfish) …, UniProt P42212 1-238 = GFP, biotinylated with the EZ-Link sulfo-NHS-LC-biotinylation kit for the BLI assay; unmodified in the NANEX selections)
T1 construct: Purified GFP; also called wild type GFP; biotinylated GFP
Assay: BLI (Octet), biotinylated GFP on streptavidin sensors saturated with CA12760, second step CA12760 + 2nd Nb
Protocol: The binding properties of the newly discovered GFP-specific Nanobodies were analysed by a Bio-layer interferometry (BLI) on an OctetRed (molecular devices). Streptavidin-coated Octet® biosensors were used to capture biotinylated GFP (100 nM). Next, the picomolar GFP stripper (CA12760; SEQ ID NO:1) was allowed to bind to GFP until a plateau was reached. These CA12760-saturated biosensors were next incubated separately in solutions containing each newly discovered Nb (as indicated in the legend of the figure), supplemented with CA12760 Nb. Assays were performed in HEPES 25 mM pH 7.5, NaCl 150 mM supplemented with BSA 0.1% and Tween₂₀ 0.005% at room temperature.
Epitope analysis. […] For this we loaded the Streptavidin biosensor with biotinylated GFP, next we allowed CA12760 (SEQ ID NO:1), the GFP-stripper with picomolar affinity, to bind to GFP. After washing, this biosensor loaded with the GFP-CA12760 complex was incubated with the newly discovered Nbs.
Epitope mapping of GFP Nanobodies by Bio-layer interferometry (BLI). Streptavidin-coated Octet® biosensors were used to capture biotinylated GFP (100 nM). Unbound biotinylated GFP is washed off from biosensor by two washing steps (60 seconds in buffer). Next, Streptavidin-coated Octet® biosensors with GFP were first incubated for 400 seconds with 20 nM CA12760, the GFP stripper, washed briefly, followed by an incubation of 400 seconds in a premix of 20 nM CA12760 with the different Nbs to be tested. Data were analyzed on an OctetRed (molecular devices). All assays were performed in HEPES 25 mM pH 7.5, NaCl 150 mM supplemented with BSA 0.1% and Tween₂₀ 0.005% at room temperature.

Row | Binder | binding result
1 | B1 | binds
2 | B2 | binds
3 | B3 | binds
4 | B4 | binds
5 | B5 | binds
6 | B6 | binds
7 | B7 | binds
8 | B8 | binds
9 | B9 | no binding

Target: T2, SSA1 (native, from EBY100 lysate) (Saccharomyces cerevisiae, UniProt P10591 2-642)
T2 construct: mature; Endogenous untagged protein; also called YAL005C
T2 sequence (P10591 2-642): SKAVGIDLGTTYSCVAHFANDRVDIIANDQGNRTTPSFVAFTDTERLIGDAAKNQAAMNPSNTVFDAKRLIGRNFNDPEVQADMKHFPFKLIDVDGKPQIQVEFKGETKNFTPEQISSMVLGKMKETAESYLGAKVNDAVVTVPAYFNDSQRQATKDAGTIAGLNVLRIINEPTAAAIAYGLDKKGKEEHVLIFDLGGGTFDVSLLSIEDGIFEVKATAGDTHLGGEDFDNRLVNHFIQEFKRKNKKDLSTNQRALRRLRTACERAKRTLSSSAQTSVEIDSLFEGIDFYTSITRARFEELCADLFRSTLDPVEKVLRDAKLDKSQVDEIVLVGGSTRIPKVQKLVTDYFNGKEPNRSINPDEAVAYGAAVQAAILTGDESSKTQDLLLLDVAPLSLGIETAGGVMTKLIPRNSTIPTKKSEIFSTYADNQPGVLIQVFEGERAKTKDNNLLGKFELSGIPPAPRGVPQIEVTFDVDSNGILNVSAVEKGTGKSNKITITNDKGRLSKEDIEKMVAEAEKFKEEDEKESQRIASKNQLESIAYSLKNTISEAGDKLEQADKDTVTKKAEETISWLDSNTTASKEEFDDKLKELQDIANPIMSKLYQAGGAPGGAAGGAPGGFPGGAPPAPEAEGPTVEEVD
Assay: co-IP, Nb on NHS-agarose beads, EBY100 yeast lysate, SDS-PAGE

Row | Binder | binding result
10 | B10 | binds
11 | B11 | binds

Target: T3, GFP-tagged SSA1 (Saccharomyces cerevisiae, UniProt P10591 2-642)
T3 construct: Yeast GFP Fusion Collection strain; also called Yeast GFP fusion collection GFP(+)10, E4; not shown: GFP tag
T3 sequence (P10591 2-642): as above
Assay: co-immunoprecipitation, Nb coupled to NHS-agarose beads, lysate of the yeast strain expressing the GFP-tagged target, Western blot anti-GFP
Protocol: Six SSA1-specific Nanobodies (60=Nb clone CA17560 corresponding to SEQ ID NO: 19, 61=CA17561-SEQ ID NO: 20, 62=CA17562-SEQ ID NO: 21, 63=CA17563-SEQ ID NO: 22, 64=CA17564-SEQ ID NO: 23, 65=CA17565-SEQ ID NO: 24) were characterized by co-immunoprecipitation assays. Each SSA1-specific Nanobodies was covalently linked to NHS-agarose beads. The beads that were functionalized with these SSA1-specific Nanobodies were incubated for an hour at 4° C. on a rotating device with either an EBY100 lysate or the lysate of the engineered Yeast strain expressing SSA1 (Yeast GFP fusion collection reference: GFP(+)10, E4) as a GFP-tagged protein. After washing, these beads were resuspended in SDS-PAGE loading dye and analyzed on SDS-PAGE (FIG. 6A). Separated proteins were transferred to a PVDF membrane and the Western blot (FIG. 6B) was developed with GFP-specific antibody to confirm the presence of GFP-tagged SSA1.

Row | Binder | binding result
12 | B10 | binds
13 | B11 | binds

Target: T4, GFP-tagged PGI1 (Saccharomyces cerevisiae, UniProt P12709 2-554)
T4 construct: Yeast GFP Fusion Collection strain; 88 kDa band; also called GFP-PGI1; Yeast GFP fusion collection GFP(+)12, H11; not shown: GFP tag
T4 sequence (P12709 2-554): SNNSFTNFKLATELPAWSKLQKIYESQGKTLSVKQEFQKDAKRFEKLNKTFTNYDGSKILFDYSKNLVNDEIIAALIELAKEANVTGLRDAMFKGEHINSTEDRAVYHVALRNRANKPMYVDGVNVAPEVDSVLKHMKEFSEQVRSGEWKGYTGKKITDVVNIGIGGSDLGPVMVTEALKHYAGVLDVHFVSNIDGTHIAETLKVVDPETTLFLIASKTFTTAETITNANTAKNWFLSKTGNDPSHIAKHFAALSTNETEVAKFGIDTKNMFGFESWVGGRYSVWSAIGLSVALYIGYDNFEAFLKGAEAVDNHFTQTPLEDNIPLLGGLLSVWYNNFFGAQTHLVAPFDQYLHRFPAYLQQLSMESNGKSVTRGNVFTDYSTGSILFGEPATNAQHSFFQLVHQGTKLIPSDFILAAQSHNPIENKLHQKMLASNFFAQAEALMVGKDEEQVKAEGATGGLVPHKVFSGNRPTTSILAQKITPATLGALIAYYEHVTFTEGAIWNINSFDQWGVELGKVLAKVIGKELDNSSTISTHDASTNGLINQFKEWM
Assay: co-immunoprecipitation, Nb coupled to NHS-agarose beads, lysate of the yeast strain expressing the GFP-tagged target, SDS-PAGE
Protocol: (§1) Each PGI1-specific Nanobody was covalently linked to NHS-agarose beads. The beads that were functionalized with these PGI1-specific Nanobodies were incubated for an hour at 4° C. on a rotating device with either an EBY100 lysate or the lysate of the engineered Yeast strain expressing PGI1 (Yeast GFP fusion collection reference: GFP(+)12, H11) as a GFP-tagged protein. After washing, these beads analyzed on SDS-PAGE (FIG. 14A). Separated proteins were transferred to a PVDF membrane and the Western blot was developed with a GFP-specific antibody to confirm the presence of GFP-tagged PGI1 (FIG. 14B). 55=Nb clone CA17455 corresponding to SEQ ID NO: 15, used as trapper/stripper for PGI1, serves as a positive control.
(§2) Individual clones were isolated from the enriched sub-library by plating tenfold serial dilutions of the overnight-grown phage-infected E. coli TG1 cells in LB. 96 individual clones were picked and grown in a 96-well plate containing LB supplemented with 100 μg/mL ampicillin. Plasmids containing the Nanobody encoding genes were purified, sequenced and grouped into sequence families (Material and methods). A representative member of each sequence family was selected. Six different PGI1 specific Nanobodies, derived from four different sequence families (Nb clone CA17791 corresponding to SEQ ID NO: 46, CA17792-SEQ ID NO:47, CA17793-SEQ ID NO:48, CA17794-SEQ ID NO:49, CA17795-SEQ ID NO:50, and CA17796-SEQ ID NO:51) were selected based on their CDR3 sequences. Their encoding plasmid was transformed into the E. coli WK6 expression strain to express and purify each Nanobody of interest. The specificity of the PGI1-specific Nanobodies was confirmed by linking separate Nanobodies on NHS-agarose beads for co-immunoprecipitation assays. The beads that were functionalized with these PGI1-specific Nanobodies and incubated for an hour at 4° C. on a rotating device with either an EBY100 lysate expressing native (un-tagged) PGI1 or the lysate of the engineered yeast strain (GFP(+)12, H11) expressing PGI1 as a GFP-tagged protein. After washing, these beads were resuspended in SDS-PAGE loading dye and analyzed on SDS-PAGE (FIG. 14A). Separated proteins were also transferred to PVDF membranes and the Western blot was developed with a GFP-specific antibody to confirm the presence of the GFP-tagged PGI1 (FIG. 14B).

Row | Binder | binding result
14 | B12 | binds
15 | B13 | binds
16 | B14 | binds
17 | B15 | binds
18 | B16 | binds
19 | B17 | binds

Target: T5, PGI1 (native, un-tagged, from EBY100 lysate) (Saccharomyces cerevisiae, UniProt P12709 2-554)
T5 construct: mature; Endogenous untagged protein, 61 kDa band; also called YBR196C; endogenous PGI1
T5 sequence (P12709 2-554): as above
Assay: co-immunoprecipitation, Nb coupled to NHS-agarose beads, EBY100 yeast lysate (native target), SDS-PAGE
Protocol: as §1, §2

Row | Binder | binding result
20 | B12 | binds
21 | B13 | binds
22 | B14 | binds
23 | B15 | binds
24 | B16 | binds
25 | B17 | binds

Reference: US20240287501A1 (VIB VZW, published 2024)
